In patent US20080311122A1, “Antagonists of Hmgb1 and/or Rage and Methods of Use Thereof” (Medimmune, LLC, priority 2005, published 2008):
“Also recorded” adds a separate entry of the source.

Key:
THP-1 cells = experiment: HMG1 binding to THP-1 cells; design: species or system human
Method: HMG1 binding to THP-1 Cells: Recombinant rat HMGB-1 was labeled using Eu-labelling Kit from PerkinElmer. Molar ratio of HMGB-1 to Eu is 1:5. THP-1 were cultured as the protocol from ATCC. Cells were harvested and suspended at concentration 1×10^6/ml in assay buffer containing 1×DELFIA L*R binding buffer (PerkinElmer), 50% of DELFIA stabilizer (PerkinElmer) and 0.05% of sodium azide. 100 μl of cells (1×10^5) was added into wells in 96 well cell culture plate. The plate was incubated with gentle shaking at 4° C. for one hour. 100 μl of assay buffer containing 2 nM of Europium-labeled HMGB-1 mixed with various concentrations (333, 166.5, 83.25, 41.6, 20.8, 10.4 and 5.2 nM) of human anti-HMGB1 antibodies E11 or G2 or soluble human RAGE-Fc, were added into each wells respectively. After one hour incubation with gentle shaking at 4° C., the cells were washed four times with 1×L*R wash buffer (PerkinElmer) by centrifuging at 1200 rpm×5 min. 200 μl of enhancement solution was added into each well to dissociate and enhance Eu fluorescence at 615 nm. The fluorescence was measured with Wallac Victor Fluorometer. Assay was performed in triplicate and human antibody R3-47 was used the negative isotype control.

[1] = test system: CpG2216+thymus HMG1 induced IFN-a release (TLR9 signaling); experiment: Inhibition of HMG1 mediated enhancement of TLR9 signaling, CpG2216 + thymus HMG1 in bone marrow cells; type: cell-based; conditions: mouse bone marrow cells
Method: HMGB1+TLR Ligand: Freshly isolated bone marrow cells were stimulated with TLR ligands (TLR3:PolyIC@5 μg/mL; TLR4:LPS@2.5 ng/mL; TLR5:flagellin@0.25 μg/mL; TLR7:polyU@4 μg/mL or R837@5 μg/mL; TLR9:CpG2216@1 μM) with or without presence of thymus HMGB1 (10 μg/mL) for 24 hr. Cytokines in the supernatant were measured by ELISA.
(§1) Inhibition of HMG1 Mediated Enhancement of TLR Signaling: Freshly isolated bone marrow cells were stimulated with TLR9 ligand CpG2216 (0.3 μM) and thymus HMGB1 (10 μg/mL) in the presence of different concentration of the anti-HMGB1 mAb E11 or control human IgG for 24 hr and IFN-a in the supernatant was measured by ELISA. CpG2216, HMGB1 and nonstimulatory DNA were used alone or in combination as controls for the assay.

[2] = test system: HMG1 induced TLR4 activation; experiment: TLR4 activation assay (NF-κB luciferase reporter, 293 cells); type: cell-based, human
Method: TLR4 Activation Assay: HuTLR4 and CD14 stably expressed 293 cells (Invitrogen) were seeded in a 96 well plate at 2×10^4/well in 100 μl of DMEM with 10% FCS overnight. Cells were then transfected with NF-κB/Luc (Stratagene) luciferase reporter construct as indicated by the kit for 24 hr. A mixture of HMGB1 and anti-HMGB1 was added to cells at 100 μl/well overnight. The luciferase activity was then measured to reflect TLR4 activation (Promega).

[3] = test system: HMG1 enhancement of PAMP stimulation; experiment: Inhibition of the enhancement of PAMP stimulation by HMG1 (Table 1 summary); type: cell-based; conditions: PAMP used and cytokine assayed are indicated
Method: Inhibition of HMG1 Mediated Enhancement of TLR Signaling: Human PBMCs were treated with Tx-HMGB1+LPS (as described above) in combination with either the Anti-HMG1 antibody E11, S16 or G4, anti-TLR4 antibody, or isotype control antibodies (R3, IgG2a) and incubated overnight at 37° C., 5% CO2 in the presence of 8 U/mL Polymyxin B. The supernatants were assayed for cytokine levels (FIG. 22, right panel).
as §1

[4] = test system: passive CIA mouse model of arthritis; experiment: Passive collagen-induced arthritis (CIA) mouse model; type: in vivo; conditions: percent protection, isotype control subtracted
Method: Induction of Passive Collagen Induced Arthritis (CIA): To establish an arthritis model six-eight week old male DBA/1J mice (Jackson Labs, Bar Harbor, Me.) were used. Generally 5-8 mice per group are used, On day 0, mice were immunized with 2 mg/mouse of anti-collage mAb cocktail (Chemicon # ECM1100, 10 mg/ml) intravenously, i.v. at tail. Mice were subsequently injected with 50 μg LPS/mouse, i.p. on day 3. Each experiment had several groups of animals as follows: groups A-E in experiment 1, groups G-J in experiment 2 and groups L-N). An additional group of mice (groups F, K and O) were untreated as normal controls.
Monitoring Disease: Beginning at day 0 all animals were observed daily to assess the status of the disease in their paws, which was done by assigning a qualitative clinical score to each of the paws. Every day, each animal has its 4 paws scored according to its state of clinical disease. The scoring is done by two observers, with at least one blinded. In addition, each mouse is weighed, to follow body weight changes, at the same time the paws are scored (see FIGS. 6A and 6D)
The grading scale for the 4 lateral digits of each paw are graded as involved or not involved, i.e., 1 or 0. For example, a maximally involved left rear paw would be scored: ankle=3, midfoot=3, digits=4 (clinical score=10 units) We would repeat this for each paw and sum the scores. […]

B1: E11: human anti-HMG1 antibody, recognizes HMG1 A-Box; VL/VH aa SEQ ID NO: 24/26 (antibody, listed as Homo sapiens, V domains shown)
VH: EVQLLESGGGLVQPGGSLRLSCAASGFTFSRYQMNWVRQAPGKGLEWVSSISPSGGHTHYADSVKGRFTISRDNSKNTLYLQMNSLRAEDTAVYYCAKDGRQGKISTVDHWGQGTLVTVSS
VL: AQDIQMTQSPGTLSLSPGERATLSCRASQSVRSNFLAWYQQKPGQAPRLLIYGASRRASGIPDRFSGSGFGADFTLSISRLEPEDFAVYYCQQYGSSPNTFGQGSRVEIK
block of HMG1 binding to THP-1 cells (THP-1 cells): block the binding of HMG1 to THP-1 cells | inhibition of IFN-a release induced by CpG + thymus HMG1 [1]: could be blocked; also recorded: inhibited the release of INF-a induced by CpG2216+thymus HMG1 | inhibition of IFN-a release induced by CpG alone [1]: not blocked; also recorded: Neither E11, G4 or Rage/Fc inhibited | block of HMG1 induced TLR4 activation [2]: able to inhibit HMG1 activation of TLR4; also recorded: significant ability to block HMG1 induced TLR4 activation | Inhibition of Synergy (PAMP/Cytokine) [3]: CpG/IFN-a, LPS/IL-6

B2: S16: human anti-HMG1 antibody, ATCC PTA-6259; VL/VH aa SEQ ID NO: 13/15 (antibody, listed as Homo sapiens, V domains shown)
VH: EVQLLESGGGLVQPGGSLRLSCAASGFTFSWYSMLWVRQAPGKGLEWVSYISPSGGFTNYADSVKGRFTISRDNSKNTLYLQMNSLRAEDTAVYYCARWDYNSGWYYDHWGQGTLVTVSS
VL: AQDIQMTQSPDTLSLSPGERATLSCRASQSVNSRNLAWYQQKPGQAPRLLIYGASTRATGIPDRFSGSVSGTEFTLTISSLQPDDFATYYCQQYNSYFTFGQGTKLEIK
in vivo CIA passive [4]: 0% | Inhibition of Synergy (PAMP/Cytokine) [3]: LPS/IL-6

B3: G20: human anti-HMG1 antibody; VL/VH aa SEQ ID NO: 46/48 (antibody, listed as Homo sapiens, V domains shown)
VH: EVQLLESGGGLVQPGGSLRLSCAASGFTFSWYDMFWVRQAPGKGLEWVSWISPSGGYTKYADSVKGRFTISRDNSKNTLYLQMNSLRAEDTAMYYCARSGLDYYDSSGYLDAFDIWGQGTMVTVSS
VL: AQDIQMTQSPSSVSASVGDRVTITCRASQDVSIWLAWYQQKPGKAPKLLIFGASRLQSGVPSRFSGSRSGADFTLTIDSVQPEDFASYYCQQADSFPLTFGGGTKVEIK
block of HMG1 induced TLR4 activation [2]: able to inhibit HMG1 activation of TLR4

B4: G2: human anti-HMG1 IgG1 from Fab phage display library; VL/VH aa SEQ ID NO: 30/32 (antibody, listed as Homo sapiens, V domains shown)
VH: EVQLLESGGGLVQPGGSLRLSCAASGFTFSWYKMQWVRQAPGKGLEWVSGISPSGGSTAYADSVKGRFTISRDNSKNTLYLQMNSLRAEDTAVYYCAKMGLFNTGNSYVDYWGQGTLVTVSS
VL: AQSELTQPPSVSEAPGQRVTISCSGSTSNIGNNAVIWYQQLPGKAPKLLIYYDDLLPSGVSDRFSGSKSGTSGSLAISGLQSEDEADYYCASWDDNLNGPLFGGGTKLTVL
block of HMG1 binding to THP-1 cells (THP-1 cells): block the binding of HMG1 to THP-1 cells | in vivo CIA passive [4]: 0%
